Source: publication PMC12416549 (2024)
Changes are numbered by the printed parent chain. Numbers in names are those of the source. One block for each binder: values may come before it.

Molecular target: T1, TNFR1 (Homo sapiens, UniProt P19438)
T1 chain: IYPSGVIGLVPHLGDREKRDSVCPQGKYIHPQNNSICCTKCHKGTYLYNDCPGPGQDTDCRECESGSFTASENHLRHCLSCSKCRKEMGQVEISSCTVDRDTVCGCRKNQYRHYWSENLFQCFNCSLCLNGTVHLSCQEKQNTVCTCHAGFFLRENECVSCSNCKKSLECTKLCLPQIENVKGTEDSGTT
Assay: yeast display SC50

B3: K85M (designed binder)
chain: SMEEEVEKAAKEYEKKKKEAIEKHLEKLKAKDKEAAERFLKELEEAAKEYAKDEAKTMSEEEAKRRAKKYKEKVLLSELSEEEQMEIKEAEEKLVRTILKYVEEAAK
- apparent Kd (screen): 0.956 nM

B5: K56N (designed binder)
chain: B3 chain with K56N, M85K
- apparent Kd (screen): 4.39 nM

B6: E60K (designed binder)
chain: B3 chain with E60K, M85K
- apparent Kd (screen): 1.69 nM

B10: K56S (designed binder)
chain: B3 chain with K56S, M85K
- apparent Kd (screen): 7.78 nM

B12: E5C (designed binder)
chain: B3 chain with E5C, M85K
- apparent Kd (screen): 1.05 nM

B17: E49N (designed binder)
chain: B3 chain with E49N, M85K
- apparent Kd (screen): 10.4 nM

B18: E7W (designed binder)
chain: B3 chain with E7W, M85K
- apparent Kd (screen): 12.5 nM

B19: V6D (designed binder)
chain: B3 chain with V6D, M85K
- apparent Kd (screen): 13.8 nM

B21: R96F (designed binder)
chain: B3 chain with M85K, R96F
- apparent Kd (screen): 2.48 nM

B22: L75V (designed binder)
chain: B3 chain with L75V, M85K
- apparent Kd (screen): 0.446 nM

B23: K88H (designed binder)
chain: B3 chain with M85K, K88H
- apparent Kd (screen): 0.49 nM

B25: K85W (designed binder)
chain: B3 chain with M85W
- apparent Kd (screen): 0.446 nM

B26: I21R (designed binder)
chain: B3 chain with I21R, M85K
- apparent Kd (screen): 0.869 nM

B27: F39L (designed binder)
chain: B3 chain with F39L, M85K
- apparent Kd (screen): 1.16 nM

B30: V102Y (designed binder)
chain: B3 chain with M85K, V102Y
- apparent Kd (screen): 2.73 nM

B31: E44N (designed binder)
chain: B3 chain with E44N, M85K
- apparent Kd (screen): 1.05 nM

B33: R66F (designed binder)
chain: B3 chain with R66F, M85K
- apparent Kd (screen): 22.2 nM

B37: L25N (designed binder)
chain: B3 chain with L25N, M85K
- apparent Kd (screen): 0.539 nM

B38: Y70L (designed binder)
chain: B3 chain with Y70L, M85K
- apparent Kd (screen): 8.56 nM

B39: E62M (designed binder)
chain: B3 chain with E62M, M85K
- apparent Kd (screen): 0.446 nM

B40: E42R (designed binder)
chain: B3 chain with E42R, M85K
- apparent Kd (screen): 7.78 nM

B41: E49F (designed binder)
chain: B3 chain with E49F, M85K
- apparent Kd (screen): 9.41 nM

B42: K11N (designed binder)
chain: B3 chain with K11N, M85K
- apparent Kd (screen): 0.446 nM

B43: K73T (designed binder)
chain: B3 chain with K73T, M85K
- apparent Kd (screen): 13.8 nM

Continued, values first:

- apparent Kd (screen): 3 nM
B1: L76W (designed binder)
chain: B3 chain with L76W, M85K

- apparent Kd (screen): 1.27 nM
B2: E22Y (designed binder)
chain: B3 chain with E22Y, M85K

- apparent Kd (screen): 0.539 nM
B4: A20N (designed binder)
chain: B3 chain with A20N, M85K

- apparent Kd (screen): 4.83 nM
B7: D32I (designed binder)
chain: B3 chain with D32I, M85K

- apparent Kd (screen): 0.49 nM
B8: S1E (designed binder)
chain: B3 chain with S1E, M85K

- apparent Kd (screen): 0.593 nM
B9: E78V (designed binder)
chain: B3 chain with E78V, M85K

- apparent Kd (screen): 0.446 nM
B11: K29S (designed binder)
chain: B3 chain with K29S, M85K

- apparent Kd (screen): 0.446 nM
B13: E19S (designed binder)
chain: B3 chain with E19S, M85K

- apparent Kd (screen): 1.69 nM
B14: K93I (designed binder)
chain: B3 chain with M85K, K93I

- apparent Kd (screen): 3 nM
B15: A55I (designed binder)
chain: B3 chain with A55I, M85K

- apparent Kd (screen): 0.446 nM
B16: H24N (designed binder)
chain: B3 chain with H24N, M85K

- apparent Kd (screen): 10.4 nM
B20: V102F (designed binder)
chain: B3 chain with M85K, V102F

- apparent Kd (screen): 0.718 nM
B24: A36R (designed binder)
chain: B3 chain with A36R, M85K

- apparent Kd (screen): 16.7 nM
B28: L99A (designed binder)
chain: B3 chain with M85K, L99A

- apparent Kd (screen): 0.49 nM
B29: A51Y (designed binder)
chain: B3 chain with A51Y, M85K

- apparent Kd (screen): 3 nM
B32: R38D (designed binder)
chain: B3 chain with R38D, M85K

- apparent Kd (screen): 16.7 nM
B34: V74A (designed binder)
chain: B3 chain with V74A, M85K

- apparent Kd (screen): 9.41 nM
B35: I87E (designed binder)
chain: B3 chain with M85K, I87E

- apparent Kd (screen): 0.718 nM
B36: E60Y (designed binder)
chain: B3 chain with E60Y, M85K
